Experimental data taken from publication PMC8274477 (Frontiers in Cell and Developmental Biology, 2021).

Molecular target: T1, OTULIN (OTU deubiquitinase with linear linkage specificity, FAM105B), His-tagged, biotin-labelled (human, UniProt Q96BN8 1-352, biotin (label; sites not stated))
T1 construct: OTULIN (FAM105B), cDNA in pET28a; also called HIS-OTULIN; source: E. coli BL21 (DE3), purified (His-tag Purification Resin), labelled with biotin; not shown: His6, N-terminal, kept
Assay: peptide or protein array; HuProt human proteome microarray; 5 ug/5 ml biotin-labelled LUBAC or OTULIN in solution, 1 h at room temperature; Cy5-streptavidin, scanned at 635 nm; BSA as negative control; hits: Z-score >= 3 and I_(Mean_Ratio) >= 1.4
Settings: both partners purified

Binder	binding result
AKR1C3 (natural protein, human, UniProt P42330 1-323, looked up, AKR1C3; protein on the human proteome microarray; source: spotted on the HuProt human proteome microarray) MDSKHQCVKLNDGHFMPVLGFGTYAPPEVPRSKALEVTKLAIEAGFRHIDSAHLYNNEEQVGLAIRSKIADGSVKREDIFYTSKLWSTFHRPELVRPALENSLKKAQLDYVDLYLIHSPMSLKPGEELSPTDENGKVIFDIVDLCTTWEAMEKCKDAGLAKSIGVSNFNRRQLEMILNKPGLKYKPVCNQVECHPYFNRSKLLDFCKSKDIVLVAYSALGSQRDKRWVDPNSPVLLEDPVLCALAKKHKRTPALIALRYQLQRGVVVLAKSYNEQRIRQNVQVFEFQLTAEDMKAIDGLDRNLHYFNSDSFASHPNYPYSDEY	binds
SPRR4 (natural protein, human, UniProt Q96PI1 1-79, looked up, SPRR4; protein on the human proteome microarray; source: spotted on the HuProt human proteome microarray) MSSQQQQRQQQQCPPQRAQQQQVKQPCQPPPVKCQETCAPKTKDPCAPQVKKQCPPKGTIIPAQQKCPSAQQASKSKQK	binds
SRA1 (natural protein, human, UniProt Q9HD15 1-224, looked up, SRA1; protein on the human proteome microarray; source: spotted on the HuProt human proteome microarray) MAELYVKPGNKERGWNDPPQFSYGLQTQAGGPRRSLLTKRVAAPQDGSPRVPASETSPGPPPMGPPPPSSKAPRSPPVGSGPASGVEPTSFPVESEAVMEDVLRPLEQALEDCRGHTRKQVCDDISRRLALLQEQWAGGKLSIPVKKRMALLVQELSSHRWDAADDIHRSLMVDHVTEVSQWMVGVKRLIAEKRSLFSEEAANEEKSAATAEKNHTIPGFQQAS	binds
AKR1D1 (natural protein, human, UniProt P51857 1-326, looked up, AKR1D1; protein on the human proteome microarray; source: spotted on the HuProt human proteome microarray) MDLSAASHRIPLSDGNSIPIIGLGTYSEPKSTPKGACATSVKVAIDTGYRHIDGAYIYQNEHEVGEAIREKIAEGKVRREDIFYCGKLWATNHVPEMVRPTLERTLRVLQLDYVDLYIIEVPMAFKPGDEIYPRDENGKWLYHKSNLCATWEAMEACKDAGLVKSLGVSNFNRRQLELILNKPGLKHKPVSNQVECHPYFTQPKLLKFCQQHDIVITAYSPLGTSRNPIWVNVSSPPLLKDALLNSLGKRYNKTAAQIVLRFNIQRGVVVIPKSFNLERIKENFQIFDFSLTEEEMKDIEALNKNVRFVELLMWRDHPEYPFHDEY	binds
SULT1C2 (natural protein, human, UniProt O00338 1-296, looked up, SULT1C2; protein on the human proteome microarray; source: spotted on the HuProt human proteome microarray) MALTSDLGKQIKLKEVEGTLLQPATVDNWSQIQSFEAKPDDLLICTYPKAGTTWIQEIVDMIEQNGDVEKCQRAIIQHRHPFIEWARPPQPSGVEKAKAMPSPRILKTHLSTQLLPPSFWENNCKFLYVARNAKDCMVSYYHFQRMNHMLPDPGTWEEYFETFINGKVVWGSWFDHVKGWWEMKDRHQILFLFYEDIKRDPKHEIRKVMQFMGKKVDETVLDKIVQETSFEKMKENPMTNRSTVSKSILDQSISSFMRKGTVGDWKNHFTVAQNERFDEIYRRKMEGTSINFCMEL	binds
TK1 (natural protein, human, UniProt P04183 1-234, looked up, TK1; protein on the human proteome microarray; source: spotted on the HuProt human proteome microarray) MSCINLPTVLPGSPSKTRGQIQVILGPMFSGKSTELMRRVRRFQIAQYKCLVIKYAKDTRYSSSFCTHDRNTMEALPACLLRDVAQEALGVAVIGIDEGQFFPDIVEFCEAMANAGKTVIVAALDGTFQRKPFGAILNLVPLAESVVKLTAVCMECFREAAYTKRLGTEKEVEVIGGADKYHSVCRLCYFKKASGQPAGPDNKENCPVPGKPGEAVAARKLFAPQQILQCSPAN	binds
TTC9C (natural protein, human, UniProt Q8N5M4 1-171, looked up, TTC9C; protein on the human proteome microarray; source: spotted on the HuProt human proteome microarray) MEKRLQEAQLYKEEGNQRYREGKYRDAVSRYHRALLQLRGLDPSLPSPLPNLGPQGPALTPEQENILHTTQTDCYNNLAACLLQMEPVNYERVREYSQKVLERQPDNAKALYRAGVAFFHLQDYDQARHYLLAAVNRQPKDANVRRYLQLTQSELSSYHRKEKQLYLGMFG	binds
ALKBH3 (natural protein, human, UniProt Q96Q83 1-286, looked up, ALKBH3; protein on the human proteome microarray; source: spotted on the HuProt human proteome microarray) MEEKRRRARVQGAWAAPVKSQAIAQPATTAKSHLHQKPGQTWKNKEHHLSDREFVFKEPQQVVRRAPEPRVIDREGVYEISLSPTGVSRVCLYPGFVDVKEADWILEQLCQDVPWKQRTGIREDITYQQPRLTAWYGELPYTYSRITMEPNPHWHPVLRTLKNRIEENTGHTFNSLLCNLYRNEKDSVDWHSDDEPSLGRCPIIASLSFGATRTFEMRKKPPPEENGDYTYVERVKIPLDHGTLLIMEGATQADWQHRVPKEYHSREPRVNLTFRTVYPDPRGAPW	binds
ANXA3 (natural protein, human, UniProt P12429 1-323, looked up, ANXA3; protein on the human proteome microarray; source: spotted on the HuProt human proteome microarray) MASIWVGHRGTVRDYPDFSPSVDAEAIQKAIRGIGTDEKMLISILTERSNAQRQLIVKEYQAAYGKELKDDLKGDLSGHFEHLMVALVTPPAVFDAKQLKKSMKGAGTNEDALIEILTTRTSRQMKDISQAYYTVYKKSLGDDISSETSGDFRKALLTLADGRRDESLKVDEHLAKQDAQILYKAGENRWGTDEDKFTEILCLRSFPQLKLTFDEYRNISQKDIVDSIKGELSGHFEDLLLAIVNCVRNTPAFLAERLHRALKGIGTDEFTLNRIMVSRSEIDLLDIRTEFKKHYGYSLYSAIKSDTSGDYEITLLKICGGDD	binds
BLVRB (natural protein, human, UniProt P30043 1-206, looked up, BLVRB; protein on the human proteome microarray; source: spotted on the HuProt human proteome microarray) MAVKKIAIFGATGQTGLTTLAQAVQAGYEVTVLVRDSSRLPSEGPRPAHVVVGDVLQAADVDKTVAGQDAVIVLLGTRNDLSPTTVMSEGARNIVAAMKAHGVDKVVACTSAFLLWDPTKVPPRLQAVTDDHIRMHKVLRESGLKYVAVMPPHIGDQPLTGAYTVTLDGRGPSRVISKHDLGHFMLRCLTTDEYDGHSTYPSHQYQ	binds
C11orf1 (natural protein, human, UniProt Q9H5F2 1-150, looked up, C11orf1; protein on the human proteome microarray; source: spotted on the HuProt human proteome microarray) MAASQCLCCSKFLFQRQNLACFLTNPHCGSLVNADGHGEVWTDWNNMSKFFQYGWRCTTNENTYSNRTLMGNWNQERYDLRNIVQPKPLPSQFGHYFETTYDTSYNNKMPLSTHRFKREPHWFPGHQPELDPPRYKCTEKSTYMNSYSKP	binds

Continued, values first:

binding result	Binder
binds	SRXN1 (natural protein, SRXN1; protein on the human proteome microarray; source: spotted on the HuProt human proteome microarray) not shown
binds	SULT1B1 (natural protein, SULT1B1; protein on the human proteome microarray; source: spotted on the HuProt human proteome microarray) not shown
binds	TAF9B (natural protein, human, UniProt Q9HBM6 1-251, looked up, TAF9B; protein on the human proteome microarray; source: spotted on the HuProt human proteome microarray) MESGKMAPPKNAPRDALVMAQILKDMGITEYEPRVINQMLEFAFRYVTTILDDAKIYSSHAKKPNVDADDVRLAIQCRADQSFTSPPPRDFLLDIARQKNQTPLPLIKPYAGPRLPPDRYCLTAPNYRLKSLIKKGPNQGRLVPRLSVGAVSSKPTTPTIATPQTVSVPNKVATPMSVTSQRFTVQIPPSQSTPVKPVPATTAVQNVLINPSMIGPKNILITTNMVSSQNTANEANPLKRKHEDDDDNDIM
binds	TMEM116 (natural protein, human, UniProt Q8NCL8 1-245, looked up, TMEM116; protein on the human proteome microarray; source: spotted on the HuProt human proteome microarray) MKHTQSGQSTSPLVIDYTCRVCQMAFVFSSLIPLLLMTPVFCLGNTSECFQNFSQSHKCILMHSPPSAMAELPPSANTSVCSTLYFYGIAIFLGSFVLSLLTIMVLLIRAQTLYKKFVKSTGFLGSEQWAVIHIVDQRVRFYPVAFFCCWGPAVILMIIKLTKPQDTKLHMALYVLQALTATSQGLLNCGVYGWTQHKFHQLKQEARRDADTQTPLLCSQKRFYSRGLNSLESTLTFPASTSTIF
binds	TST (natural protein, human, UniProt Q16762 1-297, looked up, TST; protein on the human proteome microarray; source: spotted on the HuProt human proteome microarray) MVHQVLYRALVSTKWLAESIRTGKLGPGLRVLDASWYSPGTREARKEYLERHVPGASFFDIEECRDTASPYEMMLPSEAGFAEYVGRLGISNHTHVVVYDGEHLGSFYAPRVWWMFRVFGHRTVSVLNGGFRNWLKEGHPVTSEPSRPEPAVFKATLDRSLLKTYEQVLENLESKRFQLVDSRSQGRFLGTEPEPDAVGLDSGHIRGAVNMPFMDFLTEDGFEKGPEELRALFQTKKVDLSQPLIATCRKGVTACHVALAAYLCGKPDVAVYDGSWSEWFRRAPPESRVSQGKSEKA
binds	TTC9 (natural protein, human, UniProt Q92623 1-222, looked up, TTC9; protein on the human proteome microarray; source: spotted on the HuProt human proteome microarray) MERKGSAAGAKGNPSPPAAGEGQRPPPPLCVPGGGGGAPARGQVGAAAEPAELIRRAHEFKSQGAQCYKDKKFREAIGKYHRALLELKGLLPPPGERERDSRPASPAGALKPGRLSEEQSKTVEAIEIDCYNSLAACLLQAELVNYERVKEYCLKVLKKEGENFKALYRSGVAFYHLGDYDKALYYLKEARTQQPTDTNVIRYIQLTEMKLSRCSQREKEAM
binds	WBP2NL (natural protein, human, UniProt Q6ICG8 1-309, looked up, WBP2NL; protein on the human proteome microarray; source: spotted on the HuProt human proteome microarray) MAVNQSHTENRRGALIPNGESLLKRSPNVELSFPQRSEGSNVFSGRKTGTLFLTSYRVIFITSCSISDPMLSFMMPFDLMTNLTVEQPVFAANFIKGTIQAAPYGGWEGQATFKLVFRNGDAIEFAQLMVKAASAAARGFPLRTLNDWFSSMGIYVITGEGNMCTPQMPCSVIVYGAPPAGYGAPPPGYGAPPAGYGAQPVGNEGPPVGYRASPVRYGAPPLGYGAPPAGYGAPPLGYGAPPLGYGTPPLGYGAPPLGYGAPPAGNEGPPAGYRASPAGSGARPQESTAAQAPENEASLPSASSSQVHS
binds	ALKBH2 (natural protein, human, UniProt Q6NS38 1-261, looked up, ALKBH2; protein on the human proteome microarray; source: spotted on the HuProt human proteome microarray) MDRFLVKGAQGGLLRKQEEQEPTGEEPAVLGGDKESTRKRPRREAPGNGGHSAGPSWRHIRAEGLDCSYTVLFGKAEADEIFQELEKEVEYFTGALARVQVFGKWHSVPRKQATYGDAGLTYTFSGLTLSPKPWIPVLERIRDHVSGVTGQTFNFVLINRYKDGCDHIGEHRDDERELAPGSPIASVSFGACRDFVFRHKDSRGKSPSRRVAVVRLPLAHGSLLMMNHPTNTHWYHSLPVRKKVLAPRVNLTFRKILLTKK
binds	XAGE3 (natural protein, human, UniProt Q8WTP9 1-111, looked up, XAGE3; protein on the human proteome microarray; source: spotted on the HuProt human proteome microarray) MIWRGRSTYRPRPRRSVPPPELIGPMLEPGDEEPQQEEPPTESRDPAPGQEREEDQGAAETQVPDLEADLQELSQSKTGGECGNGPDDQGKILPKSEQFKMPEGGDRQPQV
binds	BPHL (natural protein, human, UniProt Q86WA6 38-291, looked up, BPHL; protein on the human proteome microarray; source: spotted on the HuProt human proteome microarray) SVTSAKVAVNGVQLHYQQTGEGDHAVLLLPGMLGSGETDFGPQLKNLNKKLFTVVAWDPRGYGHSRPPDRDFPADFFERDAKDAVDLMKALKFKKVSLLGWSDGGITALIAAAKYPSYIHKMVIWGANAYVTDEDSMIYEGIRDVSKWSERTRKPLEALYGYDYFARTCEKWVDGIRQFKHLPDGNICRHLLPRVQCPALIVHGEKDPLVPRFHADFIHKHVKGSRLHLMPEGKHNLHLRFADEFNKLAEDFLQ
